Experimental data as given in publication doi:10.1101/2025.10.24.684426 (bioRxiv, 2025).

B1: EhCaBP1 (calcium binding protein 1), recombinant (natural protein, E. histolytica, UniProt P38505 1-134, looked up)
chain: MAEALFKEIDVNGDGAVSYEEVKAFVSKKRAIKNEQLLQLIFKSIDADGNGEIDQNEFAKFYGSIQGQDLSDDKIGLKVLYKLMDVDGDGKLTKEEVTSFFKKHGIEKVAEQVMKADANGDGYITLEEFLEFSL

Key:
[1] = target: T1, EhPHDK (PH domain containing protein kinase), full-length recombinant protein (E. histolytica, UniProt C4M4G9 1-433); experiment: BLI
T1 sequence (looked up): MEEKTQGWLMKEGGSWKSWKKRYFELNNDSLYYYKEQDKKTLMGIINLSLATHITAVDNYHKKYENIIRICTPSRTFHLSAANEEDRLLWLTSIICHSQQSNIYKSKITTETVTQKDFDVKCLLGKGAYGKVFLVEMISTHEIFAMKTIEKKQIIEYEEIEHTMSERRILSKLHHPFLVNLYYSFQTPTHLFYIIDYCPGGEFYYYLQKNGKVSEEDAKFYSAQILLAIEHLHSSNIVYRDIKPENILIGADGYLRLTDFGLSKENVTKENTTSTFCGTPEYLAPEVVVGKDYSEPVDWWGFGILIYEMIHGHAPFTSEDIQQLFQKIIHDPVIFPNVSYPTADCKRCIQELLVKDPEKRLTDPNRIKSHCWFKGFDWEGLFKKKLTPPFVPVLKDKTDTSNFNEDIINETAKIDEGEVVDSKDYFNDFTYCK

[2] = target: B1; experiment: BLI

Binder | Kd [1] [µM] | Kd [2] [µM]
B1 | 32 | –
IYKSKITTETVTQKD [EhPHDK Peptide 2 (hinge region, IQ motif-like sequence)] | – | 243
